Assay results published in paper PMC6760448, “The DRS–AIMP2–EPRS subcomplex acts as a pivot in the multi-tRNA synthetase complex” (IUCrJ, 2019).

Tests used:
[1] = target: T1, N-terminally truncated human AIMP2 splice variant lacking exon 2 (residues Ser34–Gln45 and Asp115–Lys320) (human, UniProt Q13155 34-45; Q13155 115-320); assay: SEC; separately transformed strains pooled in one culture, proteins met on cell disruption by sonication; His6 affinity (HiTrap Chelating HP), then HiLoad 16/600 Superdex 200 pg in 50 mM HEPES–NaOH pH 8.0, 200 mM NaCl, 5 mM DTT, 1% glycerol; SDS–PAGE of the highest peak; conditions: partners not purified
T1 construct: human AIMP2, residues Asp115–Lys320 (exons 3 and 4, GST domain); joined directly to Gln45 as in the splice variant AIMP2-DX2 that lacks exon 2; also called AIMP2-DX2-S34; AIMP2GST; source: E. coli BL21-CodonPlus (DE3)-RIPL; culture pooled with those of the partners, co-purified (HiTrap Chelating HP, Superdex 200); not shown: His6, C-terminal, kept
T1 sequence (looked up): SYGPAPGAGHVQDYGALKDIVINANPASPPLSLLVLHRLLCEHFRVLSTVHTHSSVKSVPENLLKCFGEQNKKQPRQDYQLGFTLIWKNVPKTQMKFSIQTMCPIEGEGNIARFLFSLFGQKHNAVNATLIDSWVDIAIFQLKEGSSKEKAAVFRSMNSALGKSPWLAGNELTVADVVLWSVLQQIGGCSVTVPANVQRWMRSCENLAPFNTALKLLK

[2] = target: the molecule itself; assay: crystal structure; DRS–AIMP2-DX2-S34–EPRSGST (DA2E) subcomplex, 3.6 Å, space group P6_(1), two subcomplexes in the asymmetric unit; crystals at 22°C from sodium/potassium phosphate, 0.1 M CAPS pH 10.5, lithium sulfate

B1: C-terminally truncated human EPRSGST (Met1–Gln157) (domain or fragment, UniProt P07814 1-157, looked up)
chain: MATLSLTVNSGDPPLGALLAVEHVKDDVSISVEEGKENILHVSENVIFTDVNSILRYLARVATTAGLYGSNLMEHTEIDHWLEFSATKLSSCDSFTSTINELNHCLSLRTYLVGNSLSLADLCVWATLKGNAAWQEQLKQKKAPVHVKRWFGFLEAQ
notes: human glutamyl-prolyl-tRNA synthetase (EPRS), GST domain, residues Met1–Gln157; also called GST domain of glutamyl-prolyl-tRNA synthetase; source: E. coli BL21-CodonPlus (DE3)-RIPL; culture pooled with those of the partners, co-purified (HiTrap Chelating HP, Superdex 200); not shown: His6, C-terminal, kept
- binding result [1]: binds

B2: N-terminally truncated human aspartyl-tRNA synthetase (residues Ala21–Pro501) (enzyme, UniProt P14868 21-501, looked up)
chain: AEDYAKERYGISSMIQSQEKPDRVLVRVRDLTIQKADEVVWVRARVHTSRAKGKQCFLVLRQQQFNVQALVAVGDHASKQMVKFAANINKESIVDVEGVVRKVNQKIGSCTQQDVELHVQKIYVISLAEPRLPLQLDDAVRPEAEGEEEGRATVNQDTRLDNRVIDLRTSTSQAVFRLQSGICHLFRETLINKGFVEIQTPKIISAASEGGANVFTVSYFKNNAYLAQSPQLYKQMCICADFEKVFSIGPVFRAEDSNTHRHLTEFVGLDIEMAFNYHYHEVMEEIADTMVQIFKGLQERFQTEIQTVNKQFPCEPFKFLEPTLRLEYCEALAMLREAGVEMGDEDDLSTPNEKLLGHLVKEKYDTDFYILDKYPLAVRPFYTMPDPRNPKQSNSYDMFMRGEEILSGAQRIHDPQLLTERALHHGIDLEKIKAYIDSFRFGAPPHAGGGIGLERVTMLFLGLHNVRQTSMFPRDPKRLTP
notes: human aspartyl-tRNA synthetase (DRS), cytosolic, residues Ala21–Pro501; Homodimer in the crystal structure of the DA2E subcomplex; No removal of the His6 tag is described; also called DRS; source: E. coli Rosetta2 (DE3)pLysS; culture pooled with those of the partners, co-purified (HiTrap Chelating HP, Superdex 200); not shown: His6, N-terminal, kept
- binding result [2]: binds
